This is an account of results in IntAct's records for PubMed 31515488.

Sequences and labels used below:
B1: Keratin, type II cytoskeletal 6A (Homo sapiens), P02538 (parent)
chain: MASTSTTIRSHSSSRRGFSANSARLPGVSRSGFSSVSVSRSRGSGGLGGACGGAGFGSRSLYGLGGSKRISIGGGSCAISGGYGSRAGGSYGFGGAGSGFGFGGGAGIGFGLGGGAGLAGGFGGPGFPVCPPGGIQEVTVNQSLLTPLNLQIDPTIQRVRAEEREQIKTLNNKFASFIDKVRFLEQQNKVLETKWTLLQEQGTKTVRQNLEPLFEQYINNLRRQLDSIVGERGRLDSELRGMQDLVEDFKNKYEDEINKRTAAENEFVTLKKDVDAAYMNKVELQAKADTLTDEINFLRALYDAELSQMQTHISDTSVVLSMDNNRNLDLDSIIAEVKAQYEEIAQRSRAEAESWYQTKYEELQVTAGRHGDDLRNTKQEIAEINRMIQRLRSEIDHVKKQCANLQAAIADAEQRGEMALKDAKNKLEGLEDALQKAKQDLARLLKEYQELMNVKLALDVEIATYRKLLEGEECRLNGEGVGQVNISVVQSTVSSGYGGASGVGSGLGLGGGSSYSYGSGLGVGGGFSSSSGRAIGGGLSSVGGGSSTIKYTTTSSSSRKSYKH
partner: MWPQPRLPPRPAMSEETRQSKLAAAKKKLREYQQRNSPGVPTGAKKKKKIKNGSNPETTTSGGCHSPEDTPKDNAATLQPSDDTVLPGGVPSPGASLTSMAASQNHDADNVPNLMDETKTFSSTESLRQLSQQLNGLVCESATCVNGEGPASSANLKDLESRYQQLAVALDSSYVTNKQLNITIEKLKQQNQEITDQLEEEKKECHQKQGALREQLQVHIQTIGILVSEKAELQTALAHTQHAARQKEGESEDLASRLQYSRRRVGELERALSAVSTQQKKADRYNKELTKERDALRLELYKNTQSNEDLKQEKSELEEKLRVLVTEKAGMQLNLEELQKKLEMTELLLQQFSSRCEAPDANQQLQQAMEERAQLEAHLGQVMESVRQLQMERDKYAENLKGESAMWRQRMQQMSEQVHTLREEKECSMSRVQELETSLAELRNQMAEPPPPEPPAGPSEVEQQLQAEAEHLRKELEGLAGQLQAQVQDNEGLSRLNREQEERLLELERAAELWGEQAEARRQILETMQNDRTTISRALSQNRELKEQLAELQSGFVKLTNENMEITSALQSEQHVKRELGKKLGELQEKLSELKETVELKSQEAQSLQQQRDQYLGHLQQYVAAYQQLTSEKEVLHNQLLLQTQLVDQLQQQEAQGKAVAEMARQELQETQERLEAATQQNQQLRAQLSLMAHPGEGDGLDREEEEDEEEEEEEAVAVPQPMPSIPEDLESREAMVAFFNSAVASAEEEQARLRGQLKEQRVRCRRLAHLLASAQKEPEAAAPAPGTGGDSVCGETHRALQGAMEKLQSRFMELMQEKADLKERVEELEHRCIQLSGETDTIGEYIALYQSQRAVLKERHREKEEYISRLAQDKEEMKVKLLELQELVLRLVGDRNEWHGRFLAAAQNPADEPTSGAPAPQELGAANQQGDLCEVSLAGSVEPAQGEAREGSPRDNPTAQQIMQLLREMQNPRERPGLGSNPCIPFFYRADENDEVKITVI
B2: Tuftelin-interacting protein 11 (Homo sapiens), Q9UBB9 (parent)
chain: MSLSHLYRDGEGRIDDDDDERENFEITDWDLQNEFNPNRQRHWQTKEEATYGVWAERDSDDERPSFGGKRARDYSAPVNFISAGLKKGAAEEAELEDSDDEEKPVKQDDFPKDFGPRKLKTGGNFKPSQKGFAGGTKSFMDFGSWERHTKGIGQKLLQKMGYVPGRGLGKNAQGIINPIEAKQRKGKGAVGAYGSERTTQSMQDFPVVDSEEEAEEEFQKELSQWRKDPSGSKKKPKYSYKTVEELKAKGRISKKLTAPQKELSQVKVIDMTGREQKVYYSYSQISHKHNVPDDGLPLQSQQLPQSGKEAKAPGFALPELEHNLQLLIDLTEQEIIQNDRQLQYERDMVVNLFHELEKMTEVLDHEERVISNLSKVLEMVEECERRMQPDCSNPLTLDECARIFETLQDKYYEEYRMSDRVDLAVAIVYPLMKEYFKEWDPLKDCTYGTEIISKWKSLLENDQLLSHGGQDLSADAFHRLIWEVWMPFVRNIVTQWQPRNCDPMVDFLDSWVHIIPVWILDNILDQLIFPKLQKEVENWNPLTDTVPIHSWIHPWLPLMQARLEPLYSPIRSKLSSALQKWHPSDSSAKLILQPWKDVFTPGSWEAFMVKNIVPKLGMCLGELVINPHQQHMDAFYWVIDWEGMISVSSLVGLLEKHFFPKWLQVLCSWLSNSPNYEEITKWYLGWKSMFSDQVLAHPSVKDKFNEALDIMNRAVSSNVGAYMQPGARENIAYLTHTERRKDFQYEAMQERREAENMAQRGIGVAASSVPMNFKDLIETKAEEHNIVFMPVIGKRHEGKQLYTFGRIVIYIDRGVVFVQGEKTWVPTSLQSLIDMAK
partner: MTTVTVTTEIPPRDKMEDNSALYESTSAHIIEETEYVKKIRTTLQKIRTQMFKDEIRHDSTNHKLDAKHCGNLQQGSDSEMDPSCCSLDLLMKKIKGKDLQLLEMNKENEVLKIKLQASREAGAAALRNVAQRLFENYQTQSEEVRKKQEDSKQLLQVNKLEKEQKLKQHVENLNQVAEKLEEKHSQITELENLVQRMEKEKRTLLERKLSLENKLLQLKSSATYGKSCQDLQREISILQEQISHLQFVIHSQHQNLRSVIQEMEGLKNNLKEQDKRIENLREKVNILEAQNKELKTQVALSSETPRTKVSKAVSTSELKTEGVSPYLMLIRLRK
B3: Zinc finger protein Aiolos (Homo sapiens), Q9UKT9 (parent)
chain: MEDIQTNAELKSTQEQSVPAESAAVLNDYSLTKSHEMENVDSGEGPANEDEDIGDDSMKVKDEYSERDENVLKSEPMGNAEEPEIPYSYSREYNEYENIKLERHVVSFDSSRPTSGKMNCDVCGLSCISFNVLMVHKRSHTGERPFQCNQCGASFTQKGNLLRHIKLHTGEKPFKCHLCNYACQRRDALTGHLRTHSVEKPYKCEFCGRSYKQRSSLEEHKERCRTFLQSTDPGDTASAEARHIKAEMGSERALVLDRLASNVAKRKSSMPQKFIGEKRHCFDVNYNSSYMYEKESELIQTRMMDQAINNAISYLGAEALRPLVQTPPAPTSEMVPVISSMYPIALTRAEMSNGAPQELEKKSIHLPEKSVPSERGLSPNNSGHDSTDTDSNHEERQNHIYQQNHMVLSRARNGMPLLKEVPRSYELLKPPPICPRDSVKVINKEGEVMDVYRCDHCRVLFLDYVMFTIHMGCHGFRDPFECNMCGYRSHDRYEFSSHIARGEHRALLK
partner: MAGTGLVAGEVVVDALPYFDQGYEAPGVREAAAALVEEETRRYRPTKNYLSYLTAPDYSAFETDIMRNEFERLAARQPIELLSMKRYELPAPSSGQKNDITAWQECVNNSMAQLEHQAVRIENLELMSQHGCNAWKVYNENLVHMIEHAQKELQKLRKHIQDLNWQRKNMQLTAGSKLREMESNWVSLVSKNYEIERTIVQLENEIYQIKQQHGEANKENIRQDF
B4: Kelch-like protein 3 (Homo sapiens), Q9UH77 (parent)
chain: MEGESVKLSSQTLIQAGDDEKNQRTITVNPAHMGKAFKVMNELRSKQLLCDVMIVAEDVEIEAHRVVLAACSPYFCAMFTGDMSESKAKKIEIKDVDGQTLSKLIDYIYTAEIEVTEENVQVLLPAASLLQLMDVRQNCCDFLQSQLHPTNCLGIRAFADVHTCTDLLQQANAYAEQHFPEVMLGEEFLSLSLDQVCSLISSDKLTVSSEEKVFEAVISWINYEKETRLEHMAKLMEHVRLPLLPRDYLVQTVEEEALIKNNNTCKDFLIEAMKYHLLPLDQRLLIKNPRTKPRTPVSLPKVMIVVGGQAPKAIRSVECYDFEEDRWDQIAELPSRRCRAGVVFMAGHVYAVGGFNGSLRVRTVDVYDGVKDQWTSIASMQERRSTLGAAVLNDLLYAVGGFDGSTGLASVEAYSYKTNEWFFVAPMNTRRSSVGVGVVEGKLYAVGGYDGASRQCLSTVEQYNPATNEWIYVADMSTRRSGAGVGVLSGQLYATGGHDGPLVRKSVEVYDPGTNTWKQVADMNMCRRNAGVCAVNGLLYVVGGDDGSCNLASVEYYNPVTDKWTLLPTNMSTGRSYAGVAVIHKSL
B5: Kinesin-associated protein 3 (Homo sapiens), Q92845 (parent)
chain: MQGEDARYLKRKVKGGNIDVHPSEKALIVHYEVEATILGEMGDPMLGERKECQKIIRLKSLNANTDITSLARKVVEECKLIHPSKLNEVEQLLYYLQNRRDSLSGKEKKEKSSKPKDPPPFEGMEIDEVANINDMDEYIELLYEDIPDKVRGSALILQLARNPDNLEELLLNETALGALARVLREDWKQSVELATNIIYIFFCFSSFSQFHGLITHYKIGALCMNIIDHELKRHELWQEELSKKKKAVDEDPENQTLRKDYEKTFKKYQGLVVKQEQLLRVALYLLLNLAEDTRTELKMRNKNIVHMLVKALDRDNFELLILVVSFLKKLSIFMENKNDMVEMDIVEKLVKMIPCEHEDLLNITLRLLLNLSFDTGLRNKMVQVGLLPKLTALLGNDNYKQIAMCVLYHISMDDRFKSMFAYTDCIPQLMKMLFECSDERIDLELISFCINLAANKRNVQLICEGNGLKMLMKRALKFKDPLLMKMIRNISQHDGPTKNLFIDYVGDLAAQISNDEEEEFVIECLGTLANLTIPDLDWELVLKEYKLVPYLKDKLKPGAAEDDLVLEVVIMIGTVSMDDSCAALLAKSGIIPALIELLNAQQEDDEFVCQIIYVFYQMVFHQATRDVIIKETQAPAYLIDLMHDKNNEIRKVCDNTLDIIAEYDEEWAKKIQSEKFRWHNSQWLEMVESRQMDESEQYLYGDDRIEPYIHEGDILERPDLFYNSDGLIASEGAISPDFFNDYHLQNGDVVGQHSFPGSLGMDGFGQPVGILGRPATAYGFRPDEPYYYGYGS
partner: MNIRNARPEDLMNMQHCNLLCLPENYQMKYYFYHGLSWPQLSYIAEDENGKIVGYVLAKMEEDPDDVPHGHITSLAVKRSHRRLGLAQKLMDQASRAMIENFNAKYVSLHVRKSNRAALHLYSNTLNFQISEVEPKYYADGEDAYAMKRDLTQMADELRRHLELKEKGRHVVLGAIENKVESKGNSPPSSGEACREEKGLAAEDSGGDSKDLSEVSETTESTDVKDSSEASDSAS

Variants of B1 are the subject of the first assay. The following applies: with goga2_human GOLGA2, Q08379.
As for L210M, the “effect of a mutation on the interaction” value is recorded as “with no effect”.
With T552S, the “effect of a mutation on the interaction” value is recorded as “with no effect”.
The same measure, in the same setting: the same measure for A335T: “with no effect”.

Variants of B2 are the subject of a further assay. The conditions noted are these: with ccd68_human CCDC68, Q9H2F9.
For the variant R8Q, the “effect of a mutation on the interaction” value is reported as “with no effect”.
Same read-out and setting: the same measure for S688L: “with no effect”.

The variants in a further assay derive from B3. The following applies: with spf27_human BCAS2, O75934.
Turning to A24V, the “effect of a mutation on the interaction” value was “with no effect”.
Same read-out and setting: under N119D stands “with no effect”.

The variants in a further assay derive from B4. The conditions noted are these: with cul3_human CUL3, Q13618.
Turning to C164F, the “effect of a mutation on the interaction” value is on record as “disrupting interaction strength”.
In the case of R228G, the “effect of a mutation on the interaction” value is “disrupting interaction strength”.

In a further assay the parent is B5. The following applies: with naa10_human NAA10, P41227.
E167K: the “effect of a mutation on the interaction” value is reported as “with no effect”.
On the same count and under the same terms, under F434C stands “with no effect”.
